Experimental data published in US20230357838.

Tests used:
[1] = test system: SaDa02 (Streptomyces sp.)
AncDa04 = test system: T1, AncDa04
T1 sequence: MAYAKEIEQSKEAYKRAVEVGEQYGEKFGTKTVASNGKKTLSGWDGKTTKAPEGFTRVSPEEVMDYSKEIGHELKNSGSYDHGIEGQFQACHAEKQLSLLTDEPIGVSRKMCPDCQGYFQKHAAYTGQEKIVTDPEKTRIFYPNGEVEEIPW

[2] = test system: CseDa01 (Candidatus Scybalomonas e)
MGYPDa06 (unidentified) = test system: T2, MGYPDa06 (unidentified)
T2 sequence: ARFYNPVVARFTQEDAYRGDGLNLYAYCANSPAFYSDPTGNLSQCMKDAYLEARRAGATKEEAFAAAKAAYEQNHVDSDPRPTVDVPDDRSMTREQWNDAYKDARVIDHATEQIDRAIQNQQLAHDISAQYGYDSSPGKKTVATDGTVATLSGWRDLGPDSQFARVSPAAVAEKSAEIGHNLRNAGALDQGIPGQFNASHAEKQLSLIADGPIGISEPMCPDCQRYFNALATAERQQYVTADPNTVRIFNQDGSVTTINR

[3] = test system: NsDa01 (Neisseria subflava); conditions: 5mC 0.059, 5hmC 0.017
[4] = test system: EcDa01 (Escherichia coli)
MGYPDa26 (unidentified) = test system: T3, MGYPDa26 (unidentified)
T3 sequence: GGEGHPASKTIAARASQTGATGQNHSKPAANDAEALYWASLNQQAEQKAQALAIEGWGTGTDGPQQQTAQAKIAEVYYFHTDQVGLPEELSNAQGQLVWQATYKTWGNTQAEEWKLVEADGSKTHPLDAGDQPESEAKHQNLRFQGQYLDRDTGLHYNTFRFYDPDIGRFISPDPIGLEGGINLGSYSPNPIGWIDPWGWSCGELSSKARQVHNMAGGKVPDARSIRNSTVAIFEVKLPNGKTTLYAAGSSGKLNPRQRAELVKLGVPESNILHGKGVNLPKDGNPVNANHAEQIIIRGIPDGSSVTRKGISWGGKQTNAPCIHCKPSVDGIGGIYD

[5] = test system: T4, BaDa01 (Bacillus aerophilus)
T4 sequence: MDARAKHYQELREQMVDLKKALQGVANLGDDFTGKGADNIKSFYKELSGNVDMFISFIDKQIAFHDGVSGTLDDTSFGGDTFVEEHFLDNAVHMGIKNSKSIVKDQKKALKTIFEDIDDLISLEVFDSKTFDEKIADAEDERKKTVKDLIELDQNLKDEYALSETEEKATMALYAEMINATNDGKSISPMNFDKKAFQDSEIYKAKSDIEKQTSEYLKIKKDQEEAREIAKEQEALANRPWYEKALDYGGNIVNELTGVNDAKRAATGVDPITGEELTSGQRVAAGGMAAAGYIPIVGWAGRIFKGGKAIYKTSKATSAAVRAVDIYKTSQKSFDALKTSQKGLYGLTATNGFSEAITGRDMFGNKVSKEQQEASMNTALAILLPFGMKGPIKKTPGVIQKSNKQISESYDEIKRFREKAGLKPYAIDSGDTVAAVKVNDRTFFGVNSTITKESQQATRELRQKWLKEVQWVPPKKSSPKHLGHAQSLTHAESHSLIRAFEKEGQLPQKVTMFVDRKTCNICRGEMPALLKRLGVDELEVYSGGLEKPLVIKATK

MGYPDa16 (unidentified) = test system: T5, MGYPDa16 (unidentified)
T5 sequence: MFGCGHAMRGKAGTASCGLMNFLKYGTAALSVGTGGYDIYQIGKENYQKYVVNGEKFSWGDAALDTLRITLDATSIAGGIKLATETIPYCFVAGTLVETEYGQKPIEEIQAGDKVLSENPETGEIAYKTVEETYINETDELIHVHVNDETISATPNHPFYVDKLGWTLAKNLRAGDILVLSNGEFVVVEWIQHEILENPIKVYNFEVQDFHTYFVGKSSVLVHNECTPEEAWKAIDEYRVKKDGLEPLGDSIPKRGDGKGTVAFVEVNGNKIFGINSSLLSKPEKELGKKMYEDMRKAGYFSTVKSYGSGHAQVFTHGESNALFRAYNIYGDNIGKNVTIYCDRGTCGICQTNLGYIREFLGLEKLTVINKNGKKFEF

[6] = test system: AshDa01 (Amycolatopsis sp.); conditions: CG 0.699, CH 0.193
MmgDa02 = conditions: CG 0.446, CH 0.002
[7] = test system: T6, d38_MGYPDa829 (unidentified)
T6 sequence: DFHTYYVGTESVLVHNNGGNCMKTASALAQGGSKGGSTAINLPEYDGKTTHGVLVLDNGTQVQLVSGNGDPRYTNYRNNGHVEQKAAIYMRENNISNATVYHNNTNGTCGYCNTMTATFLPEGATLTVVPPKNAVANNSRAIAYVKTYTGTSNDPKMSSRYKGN

[8] = test system: T7, FlDa01 (Flavobacterium sp.)
T7 sequence: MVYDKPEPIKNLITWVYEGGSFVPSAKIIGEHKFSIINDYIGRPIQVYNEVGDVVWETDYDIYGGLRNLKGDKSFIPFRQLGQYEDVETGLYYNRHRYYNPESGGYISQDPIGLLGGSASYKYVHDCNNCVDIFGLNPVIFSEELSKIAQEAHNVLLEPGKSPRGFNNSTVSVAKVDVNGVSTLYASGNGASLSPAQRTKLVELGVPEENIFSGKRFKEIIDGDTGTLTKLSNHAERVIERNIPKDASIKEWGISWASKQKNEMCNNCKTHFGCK

[9] = test system: T8, AvDa02 (Actinomyces viscosus)
T8 sequence: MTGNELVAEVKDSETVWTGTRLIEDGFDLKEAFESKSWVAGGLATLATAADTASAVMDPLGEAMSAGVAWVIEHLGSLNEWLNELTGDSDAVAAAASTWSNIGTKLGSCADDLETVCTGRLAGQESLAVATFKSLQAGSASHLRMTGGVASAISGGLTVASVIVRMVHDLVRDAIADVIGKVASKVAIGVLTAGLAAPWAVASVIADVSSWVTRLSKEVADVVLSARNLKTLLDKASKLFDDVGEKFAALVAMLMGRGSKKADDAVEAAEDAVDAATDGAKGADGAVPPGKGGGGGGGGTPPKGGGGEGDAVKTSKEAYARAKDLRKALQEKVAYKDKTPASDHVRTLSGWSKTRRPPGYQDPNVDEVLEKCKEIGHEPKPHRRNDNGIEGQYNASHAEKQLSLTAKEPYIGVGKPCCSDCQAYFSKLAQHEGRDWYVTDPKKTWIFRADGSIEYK

Work on “unmodified dsDNA (E. coli C2566 genomic)” yielded an activity (fraction deaminated) [1] of 0.607, an activity (fraction deaminated) (AncDa04) of 0.992 and an activity (fraction deaminated) [2] of 0.998. For the same substance, the activity (fraction deaminated) (MGYPDa06 (unidentified)) was 0.997, the activity (fraction deaminated) [3] was 0.597 and the activity (fraction deaminated) [4] was 0.566. For the same substance, the activity (fraction deaminated) (MGYPDa26 (unidentified)) was 0.929, the activity (fraction deaminated) [5] was 0.612 and the activity (fraction deaminated) (MGYPDa16 (unidentified)) was 0.78. It also gave an activity (fraction deaminated) [6] of 0.342, an activity (fraction deaminated) (MmgDa02) of 0.133 and an activity (fraction deaminated) [7] of 0.993. The activity (fraction deaminated) [8] was 0.928 and the activity (fraction deaminated) [9] was 0.998.
